Source: US20240182536A1 (MURAL ONCOLOGY, published 2024)

T1: IL-18 receptors on HEK-Blue IL-18 reporter cells (UniProt Q13478 19-541; O95256 20-599, limits assumed)
T1 sequence (looked up) 1: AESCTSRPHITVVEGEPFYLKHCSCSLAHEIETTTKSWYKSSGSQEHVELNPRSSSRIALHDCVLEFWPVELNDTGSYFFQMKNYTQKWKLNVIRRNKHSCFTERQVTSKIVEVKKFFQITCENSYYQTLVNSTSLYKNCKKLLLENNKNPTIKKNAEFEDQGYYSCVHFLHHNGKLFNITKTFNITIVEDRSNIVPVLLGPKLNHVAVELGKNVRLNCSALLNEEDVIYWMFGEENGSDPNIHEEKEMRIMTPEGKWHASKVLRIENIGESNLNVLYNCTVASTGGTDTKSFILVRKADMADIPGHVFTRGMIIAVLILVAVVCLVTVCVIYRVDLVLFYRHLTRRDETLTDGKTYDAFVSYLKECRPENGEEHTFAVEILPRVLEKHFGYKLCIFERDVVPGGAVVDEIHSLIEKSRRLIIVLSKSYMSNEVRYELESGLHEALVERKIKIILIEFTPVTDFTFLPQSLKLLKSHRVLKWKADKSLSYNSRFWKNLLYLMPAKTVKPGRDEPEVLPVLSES
T1 sequence (looked up) 2: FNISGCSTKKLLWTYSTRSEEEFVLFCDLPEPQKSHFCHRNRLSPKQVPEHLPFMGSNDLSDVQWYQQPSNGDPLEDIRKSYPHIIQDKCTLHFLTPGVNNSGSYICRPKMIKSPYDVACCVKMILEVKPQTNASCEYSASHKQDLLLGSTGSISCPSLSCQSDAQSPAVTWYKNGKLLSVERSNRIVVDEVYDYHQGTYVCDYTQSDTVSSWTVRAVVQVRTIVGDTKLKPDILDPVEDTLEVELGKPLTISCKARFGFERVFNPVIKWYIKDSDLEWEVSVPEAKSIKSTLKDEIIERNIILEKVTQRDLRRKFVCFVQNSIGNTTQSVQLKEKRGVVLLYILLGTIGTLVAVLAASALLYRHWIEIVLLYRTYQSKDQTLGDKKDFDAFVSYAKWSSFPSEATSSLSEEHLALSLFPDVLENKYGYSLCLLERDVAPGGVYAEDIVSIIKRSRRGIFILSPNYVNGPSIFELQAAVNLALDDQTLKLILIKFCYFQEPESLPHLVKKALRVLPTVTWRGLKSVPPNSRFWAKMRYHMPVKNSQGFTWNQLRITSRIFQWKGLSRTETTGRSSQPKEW

T2: IL-18 binding protein (IL-18BP) (UniProt O95998 31-194)
T2 sequence (looked up): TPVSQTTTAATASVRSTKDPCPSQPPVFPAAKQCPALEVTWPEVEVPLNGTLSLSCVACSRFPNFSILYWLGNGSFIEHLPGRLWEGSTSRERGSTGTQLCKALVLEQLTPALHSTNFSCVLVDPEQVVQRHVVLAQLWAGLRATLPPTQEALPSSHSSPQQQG

T3: interleukin 18 binding protein (IL-18BP) (UniProt O95998 31-194)
T3 sequence (looked up): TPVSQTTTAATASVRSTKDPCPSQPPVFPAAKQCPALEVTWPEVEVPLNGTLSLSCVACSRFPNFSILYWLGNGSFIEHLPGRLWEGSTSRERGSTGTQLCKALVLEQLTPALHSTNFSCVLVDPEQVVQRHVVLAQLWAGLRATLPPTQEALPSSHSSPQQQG

T4: IL-18 receptors on HEK-Blue IL-18 reporter cells (UniProt Q13478 19-541; O95256 20-599, limits assumed)
T4 sequence (looked up) 1: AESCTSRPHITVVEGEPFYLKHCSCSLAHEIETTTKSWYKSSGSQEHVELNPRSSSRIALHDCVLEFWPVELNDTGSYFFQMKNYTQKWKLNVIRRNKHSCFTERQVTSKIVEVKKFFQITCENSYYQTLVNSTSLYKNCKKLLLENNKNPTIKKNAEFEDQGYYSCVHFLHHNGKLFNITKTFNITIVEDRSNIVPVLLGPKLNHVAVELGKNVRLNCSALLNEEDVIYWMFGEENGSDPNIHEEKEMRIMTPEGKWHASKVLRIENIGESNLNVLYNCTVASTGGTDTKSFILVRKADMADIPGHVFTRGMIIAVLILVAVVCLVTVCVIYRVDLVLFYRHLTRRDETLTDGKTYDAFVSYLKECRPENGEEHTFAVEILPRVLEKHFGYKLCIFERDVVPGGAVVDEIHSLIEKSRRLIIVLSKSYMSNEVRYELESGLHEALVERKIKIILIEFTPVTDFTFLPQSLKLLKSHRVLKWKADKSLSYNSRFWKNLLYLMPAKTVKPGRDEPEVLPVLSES
T4 sequence (looked up) 2: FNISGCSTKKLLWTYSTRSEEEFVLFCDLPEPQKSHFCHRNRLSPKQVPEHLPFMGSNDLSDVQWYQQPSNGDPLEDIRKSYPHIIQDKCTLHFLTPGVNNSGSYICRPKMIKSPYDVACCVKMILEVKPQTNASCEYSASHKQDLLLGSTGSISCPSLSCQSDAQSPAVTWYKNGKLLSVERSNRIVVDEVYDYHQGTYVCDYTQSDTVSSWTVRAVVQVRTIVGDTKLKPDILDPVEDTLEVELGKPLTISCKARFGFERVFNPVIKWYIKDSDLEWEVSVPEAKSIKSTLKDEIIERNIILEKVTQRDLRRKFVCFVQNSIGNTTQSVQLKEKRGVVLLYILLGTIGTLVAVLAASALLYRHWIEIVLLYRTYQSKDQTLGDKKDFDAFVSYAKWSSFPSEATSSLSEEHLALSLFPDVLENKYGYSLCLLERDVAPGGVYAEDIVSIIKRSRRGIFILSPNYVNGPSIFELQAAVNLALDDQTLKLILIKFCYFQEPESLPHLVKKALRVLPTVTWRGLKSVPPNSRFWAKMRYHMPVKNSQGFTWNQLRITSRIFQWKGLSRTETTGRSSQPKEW


Columns and labels:
Test in all cases: cell-based or functional assay
[1] = molecular target: T1, IL-18 receptors on HEK-Blue IL-18 …
[2] = molecular target: T2, IL-18 binding protein (IL-18BP)
[3] = molecular target: T3, interleukin 18 binding protein (IL-18BP)
[4] = molecular target: T4, IL-18 receptors on HEK-Blue IL-18 …; remark: listed apart in the source

Binder | Activity, No BP, DF-100000 [1] | Activity, No BP, DF-500000 [1] | Activity, No BP, DF-2500000 [1] | Activity, +100 nM BP, DF-1000002 [2] | Activity, +100 nM BP, DF-5000003 [2] | Activity, +100 nM BP, DF-25000004 [2] | Ratio (-BP/+BP), DF-1000005 [2] | Ratio (-BP/+BP), DF-5000006 [2] | Ratio (-BP/+BP), DF-25000007 [2] | HEK-Blue activity, +100 nM BP, DF-10000 [3] | HEK-Blue activity, +100 nM BP, DF-100,000 [3] | HEK-Blue activity, +100 nM BP, DF-1,000,000 [3] | Ratio (-BP/+BP), DF-10000 [3] | Ratio (-BP/+BP), DF-100,000 [3] | Ratio (-BP/+BP), DF-1,000,000 [3] | HEK-Blue activity, No BP, DF-10000 [4] | HEK-Blue activity, No BP, DF-100,000 [4] | HEK-Blue activity, No BP, DF-1,000,000 [4]
IL-18 variant E6T, D54P, S55K, R104S (ligand) YFGKLTSKLSVIRNLNDQVLFIDQGNRPLFEDMTDSDMRDNAPRTIFIISMYKPKQPRGMAVTISVKSEKISTLSSENKIISFKEMNPPDNIKDTKSDIIFFQSSVPGHDNKMQFESSSYEGYFLASEKERDLFKLILKKEDELGDRSIMFTVQNED | 0.17 | 0.09 | 0.1 | 0.18 | 0.09 | 0.08 | 0.98 | 0.99 | 1.3 |  |  |  |  |  |  |  |  | 
IL-18 variant G3L, E6Q, T63S, N91L, R104P (ligand) YFLKLQSKLSVIRNLNDQVLFIDQGNRPLFEDMTDSDMRDNAPRTIFIISMYKDSQPRGMAVSISVKSEKISTLSSENKIISFKEMNPPDLIKDTKSDIIFFQPSVPGHDNKMQFESSSYEGYFLASEKERDLFKLILKKEDELGDRSIMFTVQNED | 0.15 | 0.09 | 0.1 | 0.1 | 0.08 | 0.07 | 1.44 | 1.11 | 1.34 |  |  |  |  |  |  |  |  | 
IL-18 variant G3S, E6H, K53Y, D54P, S55Y, T63S, N91A, R104S (ligand) YFSKLHSKLSVIRNLNDQVLFIDQGNRPLFEDMTDSDMRDNAPRTIFIISMYYPYQPRGMAVSISVKSEKISTLSSENKIISFKEMNPPDAIKDTKSDIIFFQSSVPGHDNKMQFESSSYEGYFLASEKERDLFKLILKKEDELGDRSIMFTVQNED | 0.09 | 0.09 | 0.07 | 0.07 | 0.08 | 0.08 | 1.18 | 1.1 | 0.95 |  |  |  |  |  |  |  |  | 
IL-18 variant G3Q, E6H, S7Y, D23A, R27S, D54S, S55R, T63F, N91F, R104Q (ligand) YFQKLHYKLSVIRNLNDQVLFIAQGNSPLFEDMTDSDMRDNAPRTIFIISMYKSRQPRGMAVFISVKSEKISTLSSENKIISFKEMNPPDFIKDTKSDIIFFQQSVPGHDNKMQFESSSYEGYFLASEKERDLFKLILKKEDELGDRSIMFTVQNED | 0.08 | 0.08 | 0.07 | 0.07 | 0.08 | 0.07 | 1.12 | 1.01 | 1.04 |  |  |  |  |  |  |  |  | 
IL-18 variant G3L, E6Q, T63H, N91M, R104H (ligand) YFLKLQSKLSVIRNLNDQVLFIDQGNRPLFEDMTDSDMRDNAPRTIFIISMYKDSQPRGMAVHISVKSEKISTLSSENKIISFKEMNPPDMIKDTKSDIIFFQHSVPGHDNKMQFESSSYEGYFLASEKERDLFKLILKKEDELGDRSIMFTVQNED | 0.16 | 0.09 | 0.11 | 0.08 | 0.07 | 0.07 | 2.02 | 1.16 | 1.47 |  |  |  |  |  |  |  |  | 
IL-18 variant D23G, K53Y, S55Y (ligand) YFGKLESKLSVIRNLNDQVLFIGQGNRPLFEDMTDSDMRDNAPRTIFIISMYYDYQPRGMAVTISVKSEKISTLSSENKIISFKEMNPPDNIKDTKSDIIFFQRSVPGHDNKMQFESSSYEGYFLASEKERDLFKLILKKEDELGDRSIMFTVQNED |  |  |  |  |  |  |  |  |  | 0.11 | 0.1 | 0.1 | 2.29 | 1.09 | 1.13 | 0.25 | 0.1 | 0.11
IL-18 variant G3P, E6I, K53N, D54W, S55P, T63S, N91L, R104Q (ligand) YFPKLISKLSVIRNLNDQVLFIDQGNRPLFEDMTDSDMRDNAPRTIFIISMYNWPQPRGMAVSISVKSEKISTLSSENKIISFKEMNPPDLIKDTKSDIIFFQQSVPGHDNKMQFESSSYEGYFLASEKERDLFKLILKKEDELGDRSIMFTVQNED | 0.07 | 0.08 | 0.07 | 0.08 | 0.09 | 0.07 | 0.91 | 0.91 | 0.97 |  |  |  |  |  |  |  |  | 
IL-18 variant G3P, E6S, K53N, D54Y, S55P, T63I, N91K, R104H (ligand) YFPKLSSKLSVIRNLNDQVLFIDQGNRPLFEDMTDSDMRDNAPRTIFIISMYNYPQPRGMAVIISVKSEKISTLSSENKIISFKEMNPPDKIKDTKSDIIFFQHSVPGHDNKMQFESSSYEGYFLASEKERDLFKLILKKEDELGDRSIMFTVQNED | 0.07 | 0.07 | 0.07 | 0.07 | 0.07 | 0.07 | 1.03 | 0.94 | 0.95 |  |  |  |  |  |  |  |  | 
IL-18 variant T34M, S36T, D37E, D40T, N41M, K53T, S55W (ligand) YFGKLESKLSVIRNLNDQVLFIDQGNRPLFEDMMDTEMRTMAPRTIFIISMYTDWQPRGMAVTISVKSEKISTLSSENKIISFKEMNPPDNIKDTKSDIIFFQRSVPGHDNKMQFESSSYEGYFLASEKERDLFKLILKKEDELGDRSIMFTVQNED |  |  |  |  |  |  |  |  |  | 0.14 | 0.12 | 0.12 | 2.13 | 1.79 | 1.63 | 0.29 | 0.21 | 0.19
IL-18 variant K53D, S55Q, H109Y (ligand) YFGKLESKLSVIRNLNDQVLFIDQGNRPLFEDMTDSDMRDNAPRTIFIISMYDDQQPRGMAVTISVKSEKISTLSSENKIISFKEMNPPDNIKDTKSDIIFFQRSVPGYDNKMQFESSSYEGYFLASEKERDLFKLILKKEDELGDRSIMFTVQNED |  |  |  |  |  |  |  |  |  | 0.12 | 0.15 | 0.1 | 1.94 | 1.36 | 1.27 | 0.23 | 0.2 | 0.13
IL-18 variant K53Y, S55G, Q56H (ligand) YFGKLESKLSVIRNLNDQVLFIDQGNRPLFEDMTDSDMRDNAPRTIFIISMYYDGHPRGMAVTISVKSEKISTLSSENKIISFKEMNPPDNIKDTKSDIIFFQRSVPGHDNKMQFESSSYEGYFLASEKERDLFKLILKKEDELGDRSIMFTVQNED |  |  |  |  |  |  |  |  |  | 0.3 | 0.21 | 0.18 | 0.86 | 0.7 | 0.63 | 0.26 | 0.15 | 0.11
IL-18 variant T34L, S36V, D40A, N41S, K53G, S55W (ligand) YFGKLESKLSVIRNLNDQVLFIDQGNRPLFEDMLDVDMRASAPRTIFIISMYGDWQPRGMAVTISVKSEKISTLSSENKIISFKEMNPPDNIKDTKSDIIFFQRSVPGHDNKMQFESSSYEGYFLASEKERDLFKLILKKEDELGDRSIMFTVQNED |  |  |  |  |  |  |  |  |  | 0.12 | 0.12 | 0.14 | 1.81 | 1.6 | 0.97 | 0.22 | 0.19 | 0.14
